Consider 91 sequences from the supplement of paper PMC9112550, “Optimization of the antimicrobial peptide Bac7 by deep mutational scanning” (BMC Biology, 2022).

The data set deals with Escherichia coli TOP10. Nature of the data set: shrunken log2 fold change of peptide-encoding DNA abundance (4.5 h post-induction vs induction); higher = less antimicrobial activity (less host growth inhibition). To be noted: time post-induction: 4.5 h; library: site-saturation at positions 5, 18, 19, 20.
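Also: peptides expressed intracellularly from a pBAD plasmid library in pooled LB shake-flask culture, induced with 0.3% L-arabinose, DNA abundance read by NGS, three biological replicates, DESeq2 with apeglm shrinkage.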

As for RRIRMRPPRLPRPRPRPQLIPRP, the “shrunken log2 fold change” value is -0.0368.

For RRIRFRPPRLPRPRPRPYPFPRP, the “shrunken log2 fold change” value was -0.69.

Consider RRIRPRPPRLPRPRPRPHQYPRP, for which the “shrunken log2 fold change” value is -0.623.

Turning to RRIRSRPPRLPRPRPRPMVSPRP, the “shrunken log2 fold change” value was 0.0287.

As to RRIRLRPPRLPRPRPRPEIYPRP, the “shrunken log2 fold change” value is -0.0581.

For the sequence RRIRCRPPRLPRPRPRPVNLPRP, the “shrunken log2 fold change” value was determined as 2.47.

Turning to RRIRTRPPRLPRPRPRPNVVPRP, the “shrunken log2 fold change” value was -0.0363.

In the case of RRIRMRPPRLPRPRPRPHPIPRP, the “shrunken log2 fold change” value is -0.116.

For the sequence RRIRNRPPRLPRPRPRPQPHPRP, the “shrunken log2 fold change” value is -0.0382.

Take RRIRERPPRLPRPRPRPIDFPRP: the “shrunken log2 fold change” value amounted to 0.136.

Consider RRIRQRPPRLPRPRPRPVSRPRP, for which the “shrunken log2 fold change” value was -0.00586.

Turning to RRIRERPPRLPRPRPRPGLGPRP, the “shrunken log2 fold change” value stood at 0.602.

In the case of RRIRTRPPRLPRPRPRPVRKPRP, the “shrunken log2 fold change” value is 0.00119.

For RRIRVRPPRLPRPRPRPFQFPRP, the “shrunken log2 fold change” value was -0.171.

As to RRIRSRPPRLPRPRPRPVFRPRP, the “shrunken log2 fold change” value is -0.113.

For the sequence RRIRMRPPRLPRPRPRPMTKPRP, the “shrunken log2 fold change” value amounted to 0.0956.

Regarding RRIRQRPPRLPRPRPRPAMMPRP, the “shrunken log2 fold change” value was 0.00621.

For RRIRTRPPRLPRPRPRPQSSPRP, the “shrunken log2 fold change” value is -0.08.

Regarding RRIRERPPRLPRPRPRPQFRPRP, the “shrunken log2 fold change” value is -0.00151.

Take RRIRFRPPRLPRPRPRPHRLPRP: the “shrunken log2 fold change” value was 0.0835.

As to RRIRLRPPRLPRPRPRPYLSPRP, the “shrunken log2 fold change” value was -0.0116.

Consider RRIRRRPPRLPRPRPRPYDGPRP, for which the “shrunken log2 fold change” value was -0.101.

Turning to RRIRARPPRLPRPRPRPAATPRP, the “shrunken log2 fold change” value turned out to be 0.914.

As for RRIRYRPPRLPRPRPRPDINPRP, the “shrunken log2 fold change” value is -0.162.

Turning to RRIRLRPPRLPRPRPRPLCCPRP, the “shrunken log2 fold change” value was -0.146.

Regarding RRIRNRPPRLPRPRPRPWYIPRP, the “shrunken log2 fold change” value came to 0.00246.

With RRIRYRPPRLPRPRPRPIKCPRP, the “shrunken log2 fold change” value was -0.00104.

With RRIRNRPPRLPRPRPRPPPKPRP, the “shrunken log2 fold change” value amounted to 1.5.

Regarding RRIRVRPPRLPRPRPRPGTMPRP, the “shrunken log2 fold change” value is -0.122.

As to RRIRPRPPRLPRPRPRPLYRPRP, the “shrunken log2 fold change” value was -0.181.

On to RRIRPRPPRLPRPRPRPQTPPRP, for which the “shrunken log2 fold change” value amounted to 0.313.

As to RRIRPRPPRLPRPRPRPQGKPRP, the “shrunken log2 fold change” value was -0.198.

Take RRIRIRPPRLPRPRPRPYNKPRP: the “shrunken log2 fold change” value was -0.783.

Consider RRIRFRPPRLPRPRPRPHWYPRP, for which the “shrunken log2 fold change” value is -0.343.

On to RRIRRRPPRLPRPRPRPDFQPRP, for which the “shrunken log2 fold change” value was -0.135.

Turning to RRIRMRPPRLPRPRPRPYREPRP, the “shrunken log2 fold change” value was -0.0131.

Turning to RRIRKRPPRLPRPRPRPVVFPRP, the “shrunken log2 fold change” value is -0.0936.

For the sequence RRIRTRPPRLPRPRPRPVKFPRP, the “shrunken log2 fold change” value is -0.0819.

Turning to RRIRNRPPRLPRPRPRPLNKPRP, the “shrunken log2 fold change” value is -0.256.

Turning to RRIRMRPPRLPRPRPRPCDMPRP, the “shrunken log2 fold change” value was 0.195.

For RRIRWRPPRLPRPRPRPYHMPRP, the “shrunken log2 fold change” value is -0.591.

Regarding RRIRIRPPRLPRPRPRPAHWPRP, the “shrunken log2 fold change” value stood at 0.396.

As to RRIRNRPPRLPRPRPRPTNPPRP, the “shrunken log2 fold change” value is -0.216.

On to RRIRQRPPRLPRPRPRPNNNPRP, for which the “shrunken log2 fold change” value was -0.825.

As to RRIRQRPPRLPRPRPRPFHLPRP, the “shrunken log2 fold change” value is -0.0558.

In the case of RRIRSRPPRLPRPRPRPFRHPRP, the “shrunken log2 fold change” value was -0.0389.

Turning to RRIRWRPPRLPRPRPRPFSCPRP, the “shrunken log2 fold change” value was -0.00231.

For the sequence RRIRIRPPRLPRPRPRPEPYPRP, the “shrunken log2 fold change” value came to 0.0464.

With RRIRWRPPRLPRPRPRPIYAPRP, the “shrunken log2 fold change” value is -0.0827.

On to RRIRERPPRLPRPRPRPPEMPRP, for which the “shrunken log2 fold change” value was 0.0477.

As for RRIRNRPPRLPRPRPRPYERPRP, the “shrunken log2 fold change” value came to 0.0318.

Take RRIRHRPPRLPRPRPRPVVSPRP: the “shrunken log2 fold change” value was -0.137.

For RRIRVRPPRLPRPRPRPTMCPRP, the “shrunken log2 fold change” value was determined as 0.15.

RRIRTRPPRLPRPRPRPHLQPRP: the “shrunken log2 fold change” value was -0.321.

As for RRIRGRPPRLPRPRPRPFPWPRP, the “shrunken log2 fold change” value is 0.383.

With RRIRTRPPRLPRPRPRPLDDPRP, the “shrunken log2 fold change” value came out at 0.115.

In the case of RRIRVRPPRLPRPRPRPRKKPRP, the “shrunken log2 fold change” value was found to be 0.0671.

Take RRIRLRPPRLPRPRPRPCVMPRP: the “shrunken log2 fold change” value is 0.025.

Regarding RRIRCRPPRLPRPRPRPPHDPRP, the “shrunken log2 fold change” value was determined as 1.83.

For the sequence RRIRHRPPRLPRPRPRPIHMPRP, the “shrunken log2 fold change” value is -0.141.

Turning to RRIRMRPPRLPRPRPRPRLEPRP, the “shrunken log2 fold change” value stood at 0.113.

Turning to RRIRVRPPRLPRPRPRPCTIPRP, the “shrunken log2 fold change” value was -0.0586.

For the sequence RRIRCRPPRLPRPRPRPDKSPRP, the “shrunken log2 fold change” value was -1.38.

With RRIRNRPPRLPRPRPRPQTYPRP, the “shrunken log2 fold change” value is -0.375.

Consider RRIRWRPPRLPRPRPRPKFTPRP, for which the “shrunken log2 fold change” value was -0.119.

For RRIRYRPPRLPRPRPRPWVDPRP, the “shrunken log2 fold change” value is -0.445.

For RRIRSRPPRLPRPRPRPPDWPRP, the “shrunken log2 fold change” value was determined as 0.661.

With RRIRHRPPRLPRPRPRPVKYPRP, the “shrunken log2 fold change” value is -0.0563.

Consider RRIRMRPPRLPRPRPRPTPTPRP, for which the “shrunken log2 fold change” value is 2.

Regarding RRIRFRPPRLPRPRPRPESWPRP, the “shrunken log2 fold change” value turned out to be 0.53.

As to RRIRQRPPRLPRPRPRPFRYPRP, the “shrunken log2 fold change” value was -0.245.

Take RRIRIRPPRLPRPRPRPAQYPRP: the “shrunken log2 fold change” value is -0.13.

Take RRIRSRPPRLPRPRPRPMRHPRP: the “shrunken log2 fold change” value was 3.44.

With RRIRCRPPRLPRPRPRPCRIPRP, the “shrunken log2 fold change” value is -0.271.

RRIRARPPRLPRPRPRPMHGPRP: the “shrunken log2 fold change” value amounted to 0.311.

For RRIRERPPRLPRPRPRPYCLPRP, the “shrunken log2 fold change” value is -0.123.

As to RRIRLRPPRLPRPRPRPYNHPRP, the “shrunken log2 fold change” value is -0.669.

On to RRIRWRPPRLPRPRPRPKKMPRP, for which the “shrunken log2 fold change” value is 0.0841.

As for RRIRARPPRLPRPRPRPMFTPRP, the “shrunken log2 fold change” value is -0.0981.

As to RRIRARPPRLPRPRPRPTKAPRP, the “shrunken log2 fold change” value was determined as 0.437.

As for RRIRTRPPRLPRPRPRPYLIPRP, the “shrunken log2 fold change” value was -0.183.

As to RRIRRRPPRLPRPRPRPLFLPRP, the “shrunken log2 fold change” value is -0.173.

Take RRIRYRPPRLPRPRPRPGPAPRP: the “shrunken log2 fold change” value was 0.0198.

Take RRIRDRPPRLPRPRPRPKQHPRP: the “shrunken log2 fold change” value turned out to be 0.0788.

In the case of RRIRKRPPRLPRPRPRPKVCPRP, the “shrunken log2 fold change” value was -0.0666.

Regarding RRIRARPPRLPRPRPRPIFFPRP, the “shrunken log2 fold change” value came out at 0.388.

As to RRIRKRPPRLPRPRPRPNMHPRP, the “shrunken log2 fold change” value is 0.19.

For RRIRQRPPRLPRPRPRPARFPRP, the “shrunken log2 fold change” value was determined as 0.0469.

Take RRIRIRPPRLPRPRPRPPYTPRP: the “shrunken log2 fold change” value is -0.822.

As to RRIRPRPPRLPRPRPRPCSAPRP, the “shrunken log2 fold change” value worked out at 0.199.

Regarding RRIRIRPPRLPRPRPRPCPRPRP, the “shrunken log2 fold change” value is -0.185.
